Results on 12 molecules are retold here after patent publication US20230279152A1 (published 2023).

The target of test [1] is T1, human Claudin 18.2 protein (human).
T1 construct: Expressed on transfected cells (CHO-hCLDN18.2, HEK293-hCLDN18.2, 3T3-hCLDN18.2) from pCMV3-hCLDN18.2; also called human CLDN18.2; hCLDN18.2
Put plainly: FACS cell surface binding analysis.

Test [2] has as its target T1, human Claudin 18.2 protein. As to the kind of experiment: cell-based or functional assay.
For test [3], the target named is T1, human Claudin 18.2 protein. As to the kind of experiment: FACS on cells expressing CLDN18.2 versus cells expressing CLDN18.1 (reference: binding to CLDN18.1).
Text: FACS cell binding assays. […] Cells were fixed with 1% paraformaldehyde (PFA) prior to analysis on FACSCalibur cytometer (BD biosciences, Franklin Lakes, N.J., U.S.). Controls were cells with secondary antibody only, for which the mean fluorescent intensity (MFI) was set to 5.

Where a chain is given by its changes, count along the chain named.

T1 sequence (chain, as listed by the source limits assumed): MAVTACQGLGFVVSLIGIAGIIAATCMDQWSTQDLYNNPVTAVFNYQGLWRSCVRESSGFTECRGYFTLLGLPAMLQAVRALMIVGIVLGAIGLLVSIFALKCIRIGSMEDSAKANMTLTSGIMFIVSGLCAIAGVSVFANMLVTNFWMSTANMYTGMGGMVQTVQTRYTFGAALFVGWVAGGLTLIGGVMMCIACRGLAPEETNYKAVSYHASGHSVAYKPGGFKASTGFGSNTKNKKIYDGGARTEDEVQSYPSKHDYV

B1: 32G4-huIgG1-V8 (antibody, V domains shown)
VH: QVQLVQSGAEVKKPGASVKVSCKASGYSSTGYNINWVRQAPGQGLEWMGNINPYYGGITYNQKFQGRVTMTVDKSISTAYMELSRLRSDDTVVYYCARDYYGNSFAYWGQGTLVTVSS
VL: DIQMTQSPSSLSASVGDRVTITCRSSQSLLNSGNQKNYLTWYQQKPGKAPKLLIFWASTLESGVPSRFSGSGSGTDFTLTISSLQPEDFATYYCQNNYYFPYTFGQGTKLEIKR
notes: Humanized full IgG1 antibody; also called humanized 32G4 variant V8; 32G4-V8
Usually EC50 stands for the concentration at which the effect is half-maximal. With B1, the EC50 in test [1] was determined as 0.147 nM.

B2: 47D10-huIgG1-V7×OKT3 (anti-CLDN18.2×CD3) bispecific antibody (bispecific antibody)
heavy: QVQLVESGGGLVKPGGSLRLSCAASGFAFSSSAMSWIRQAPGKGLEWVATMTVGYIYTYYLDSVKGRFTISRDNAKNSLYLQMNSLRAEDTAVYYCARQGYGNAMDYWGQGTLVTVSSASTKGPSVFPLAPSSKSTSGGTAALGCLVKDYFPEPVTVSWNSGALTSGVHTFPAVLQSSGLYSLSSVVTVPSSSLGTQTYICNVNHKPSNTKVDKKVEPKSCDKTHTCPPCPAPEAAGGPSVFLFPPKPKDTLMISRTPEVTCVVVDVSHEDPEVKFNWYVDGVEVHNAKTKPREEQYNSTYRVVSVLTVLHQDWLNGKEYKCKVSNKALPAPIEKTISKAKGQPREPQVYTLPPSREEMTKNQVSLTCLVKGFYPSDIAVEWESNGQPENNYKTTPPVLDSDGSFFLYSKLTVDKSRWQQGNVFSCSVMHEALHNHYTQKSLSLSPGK
light: DIVMTQSPGTLSLSPGERATLSCRSSQSLLNSGNQKNYLTWYQQKPGQAPRLLIYWASTRESGIPDRFSGSGSGTDFTLTISRLEPEDFAVYYCQNNYIYPLTFGQGTKLEIKRTVAAPSVFIFPPSDEQLKSGTASVVCLLNNFYPREAKVQWKVDNALQSGNSQESVTEQDSKDSTYSLSSTLTLSKADYEKHKVYACEVTHQGLSSPVTKSFNRGECTSGGGGSGGGGSGGGGSQVQLVQSGGGVVQPGRSLRLSCKASGYTFTRYTMHWVRQAPGKGLEWIGYINPSRGYTNYNQKFKDRFTISRDNSKNTAFLQMDSLRPEDTGVYFCARYYDDHYSLDYWGQGTPVTVSSGGGGSGGGGSGGGGSGGGGSGGGGSGGGGSDIQMTQSPSSLSASVGDRVTITCSASSSVSYMNWYQQTPGKAPKRWIYDTSKLASGVPSRFSGSGSGTDYTFTISSLQPEDIATYYCQQWSSNPFTFGQGTKLQIT
As to B2, the “TDCC activity (T cell dependent cellular cytotoxicity; CellTiter-Glo cell viability, PBMCs as effectors, 48 hours)” value (“TDCC activity” below) in test [2] was found to be 1 pM.

B3: 31A6 mouse chimeric antibody (murine VH/VL on human IgG1 constant regions) (antibody, V domains shown)
VH: QTYLQQSGAELVRSGASVKMSCKASGYTFASYNIHWVKQTPGQGLEWIGYIYPGKDGSHYNQKFRDKATLTADTSSSTAYMQISSLTSEDSAVYFCARGGYYGNSFDYWGQGTLVTVSA
VL: DIVMSQSPSSLTVTTGEKVTMTCKSSQSLLNSGNLKNYLAWYQQKPGQPPKLLIYWASIRESGVPDRFTGSGSGTDFTLTIISVQAEDLAIYYCQNAYTFPFTLGGGTKLEIK
notes: also called murine clone 31A6
As for B3, in test [1], the EC50 worked out at 10.9 nM. In addition, the “fold stronger binding to CLDN18.2 than to CLDN18.1” value (shortened to “fold stronger binding”) in test [3] is no less than 1000 times.

B4: 29G4 mouse chimeric antibody (murine VH/VL on human IgG1 constant regions) (antibody, V domains shown)
VH: QVQLKESGPGLVAPSQTLSITCTVSGFSLTNYGVQWVRQPPGKGLEWLGVIWAGGNTNYNSALLSRLSISKDTSKSQVFLKMNSLKTDDTAMYYCARGGYGNSCDYWGQGTLVTVSA
VL: DIVMTQSPSSLTVTAGEKVTMNCKSSQSLLNSGNQKNYLAWYRQKPGQPPKLLIYWASTRGSGVPDRFTGSGSGTDFALTISSVQAEDLAVYYCQNDYFYPLTFGAGTKLDLK
notes: also called murine clone 29G4
As for B4, the EC50 in test [1] was 1.26 nM. Further, the “fold stronger binding” value in test [3] was no less than 1000 times.

B5: 32G4-huIgG1-V9 (antibody, V domains shown)
VH: EVQLVQSGSELKKPGASVKVSCKASGYSSTGYNINWVRQAPGQGLEWIGNINPYYGGITYNQGFTGRFVLSVDKSSSTAYLQISSLKAEDTAVYYCARDYYGNSFAYWGQGTLVTVSS
VL: DIVMTQSPDSLAVSLGERATINCKSSQSLLNSGNQKNYLTWYQQKPGQPPKLLIFWASTRESGVPDRFSGSGSGTDFTLTISSLQAEDVAVYYCQNNYYFPYTFGQGTKLEIKR
notes: Humanized full IgG1 antibody; also called humanized 32G4 variant V9; 32G4-V9
In test [1], B5 gave an EC50 of 0.129 nM.

B6: 47D10-huIgG1-V6 (antibody, V domains shown)
VH: QVQLVESGGGLVKPGGSLRLSCAASGFAFSSSAMSWIRQAPGKGLEWVATMTVGYIYTYYLDSVKGRFTISRDNAKNSLYLQMNSLRAEDTAVYYCARQGYGNAMDYWGQGTLVTVSS
VL: DIVMTQSPLSLPVTPGEPASISCRSSQSLLNSGNQKNYLTWYLQKPGQSPQLLIYWASTRESGVPDRFSGSGSGTDFTLKISRVEAEDVGVYYCQNNYIYPLTFGQGTKLEIKR
notes: Humanized full IgG1 antibody; also called humanized 47D10 variant V6; 47D10-V6
In test [1], B6 displayed an EC50 of 0.22 nM.

B7: 47D10-huIgG1-V7 (antibody, V domains shown)
VH: B6 VH
VL: DIVMTQSPGTLSLSPGERATLSCRSSQSLLNSGNQKNYLTWYQQKPGQAPRLLIYWASTRESGIPDRFSGSGSGTDFTLTISRLEPEDFAVYYCQNNYIYPLTFGQGTKLEIKR
notes: Humanized full IgG1 antibody; also called humanized 47D10 variant V7; 47D10-V7
As for B7, the EC50 in test [1] was 0.361 nM.

B8: 32G4-huIgG1-V8×OKT3 (anti-CLDN18.2×CD3) bispecific antibody (bispecific antibody)
heavy: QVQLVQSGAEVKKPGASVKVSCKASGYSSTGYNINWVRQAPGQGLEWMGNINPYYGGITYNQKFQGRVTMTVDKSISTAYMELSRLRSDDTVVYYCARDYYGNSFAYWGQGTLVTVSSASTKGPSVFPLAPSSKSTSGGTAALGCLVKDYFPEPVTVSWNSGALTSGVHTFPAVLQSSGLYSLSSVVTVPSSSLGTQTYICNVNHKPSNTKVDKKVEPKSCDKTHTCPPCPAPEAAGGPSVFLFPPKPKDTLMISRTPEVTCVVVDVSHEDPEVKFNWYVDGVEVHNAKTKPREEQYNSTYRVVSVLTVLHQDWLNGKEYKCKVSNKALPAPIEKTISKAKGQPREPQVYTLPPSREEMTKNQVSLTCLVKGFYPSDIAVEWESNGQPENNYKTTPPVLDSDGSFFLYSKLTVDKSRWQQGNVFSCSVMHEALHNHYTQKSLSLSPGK
light: DIQMTQSPSSLSASVGDRVTITCRSSQSLLNSGNQKNYLTWYQQKPGKAPKLLIFWASTLESGVPSRFSGSGSGTDFTLTISSLQPEDFATYYCQNNYYFPYTFGQGTKLEIKRTVAAPSVFIFPPSDEQLKSGTASVVCLLNNFYPREAKVQWKVDNALQSGNSQESVTEQDSKDSTYSLSSTLTLSKADYEKHKVYACEVTHQGLSSPVTKSFNRGECTSGGGGSGGGGSGGGGSQVQLVQSGGGVVQPGRSLRLSCKASGYTFTRYTMHWVRQAPGKGLEWIGYINPSRGYTNYNQKFKDRFTISRDNSKNTAFLQMDSLRPEDTGVYFCARYYDDHYSLDYWGQGTPVTVSSGGGGSGGGGSGGGGSGGGGSGGGGSGGGGSDIQMTQSPSSLSASVGDRVTITCSASSSVSYMNWYQQTPGKAPKRWIYDTSKLASGVPSRFSGSGSGTDYTFTISSLQPEDIATYYCQQWSSNPFTFGQGTKLQIT
As to B8, the “TDCC activity” value in test [2] worked out at 1 pM.

B9: 32G4 mouse chimeric antibody (murine VH/VL on human IgG1 constant regions) (antibody, V domains shown)
VH: EVQLQQSGPELENPGASVKIFCKASGYSSTGYNINWVKQSSGKSLEWIGNINPYYGGITYNQKFKGKATLTVDKSSSTAYVQLKSLTSEDSAVYYCARDYYGNSFAYWGQGTLVTVST
VL: DIVMTQSPSSLTVTAGEKVTMSCKSSQSLLNSGNQKNYLTWYQQNPGQPPKLLIFWASTRESGVPDRFTGSGSGTDFTLTISSVQAEDLAVYYCQNNYYFPYTFGGGTKLEIR
notes: also called murine clone 32G4; mouse 32G4 chimeric control antibody
B9 had an EC50 in test [1] of 0.502 nM. Besides, the “fold stronger binding” value in test [3] was no less than 1000 times.

B10: 47D10 mouse chimeric antibody (murine VH/VL on human IgG1 constant regions) (antibody, V domains shown)
VH: QVMLVESGGGLVKPGGSLKLSCAASGFAFSSSAMSWIRQTPEKRLEWVATMTVGYIYTYYLDTVKGRFIISRDNANNTLYLQMSSLRSEDSAMYYCARQGYGNAMDYWGQGTSVTVSS
VL: B4 VL with N22S, A40T, R43Q, G61E, D66Y, A78T, Q85E, D97N, F99I, D111E
notes: also called murine clone 47D10; mouse 47D10 chimeric control antibody
Molecule B10 showed an EC50 in test [1] of 1.97 nM. In test [3], the “fold stronger binding” value is no less than 1000 times.

B11: 15B10 mouse chimeric antibody (murine VH/VL on human IgG1 constant regions) (antibody, V domains shown)
VH: QVQLQQSGAELVRPGTSVKVSCKASGYAFSNYLIDWVKQRPGQGLEWIGVIHPGSGTNYNENFKGKATLTADKSSSTAYMQLSSLTSDDSAVYFCSRRWYGNSLIYWGQGTLVTVSA
VL: B4 VL with N22T, K36R, A40T, R43Q, G61E, A78T, L102F, A106S, D111E, L112I
notes: also called murine clone 15B10
For B11, the midpoint of the response in test [1], the EC50, lay at 2.2 nM. Also, in test [3], the “fold stronger binding” value is no less than 1000 times.

B12: 47D10-huIgG1-V6×OKT3 (anti-CLDN18.2×CD3) bispecific antibody (bispecific antibody)
heavy: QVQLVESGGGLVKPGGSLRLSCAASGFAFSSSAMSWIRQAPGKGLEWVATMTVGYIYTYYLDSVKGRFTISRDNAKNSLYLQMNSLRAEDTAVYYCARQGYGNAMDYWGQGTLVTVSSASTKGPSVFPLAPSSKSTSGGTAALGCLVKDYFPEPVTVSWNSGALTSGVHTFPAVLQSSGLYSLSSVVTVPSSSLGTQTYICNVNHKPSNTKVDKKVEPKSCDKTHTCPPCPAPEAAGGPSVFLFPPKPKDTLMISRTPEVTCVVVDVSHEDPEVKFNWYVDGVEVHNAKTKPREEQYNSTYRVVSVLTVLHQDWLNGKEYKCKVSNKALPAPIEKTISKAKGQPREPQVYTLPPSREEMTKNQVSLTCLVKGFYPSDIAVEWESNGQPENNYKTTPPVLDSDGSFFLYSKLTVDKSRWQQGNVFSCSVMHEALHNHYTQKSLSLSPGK
light: DIVMTQSPLSLPVTPGEPASISCRSSQSLLNSGNQKNYLTWYLQKPGQSPQLLIYWASTRESGVPDRFSGSGSGTDFTLKISRVEAEDVGVYYCQNNYIYPLTFGQGTKLEIKRTVAAPSVFIFPPSDEQLKSGTASVVCLLNNFYPREAKVQWKVDNALQSGNSQESVTEQDSKDSTYSLSSTLTLSKADYEKHKVYACEVTHQGLSSPVTKSFNRGECTSGGGGSGGGGSGGGGSQVQLVQSGGGVVQPGRSLRLSCKASGYTFTRYTMHWVRQAPGKGLEWIGYINPSRGYTNYNQKFKDRFTISRDNSKNTAFLQMDSLRPEDTGVYFCARYYDDHYSLDYWGQGTPVTVSSGGGGSGGGGSGGGGSGGGGSGGGGSGGGGSDIQMTQSPSSLSASVGDRVTITCSASSSVSYMNWYQQTPGKAPKRWIYDTSKLASGVPSRFSGSGSGTDYTFTISSLQPEDIATYYCQQWSSNPFTFGQGTKLQIT
For the molecule B12, in test [2], the “TDCC activity” value was 1 pM.
